According to patent US20220112288A1 (published 2022):
Residue numbers refer to the chain shown, from its start.

B1: 75110_10K21A (antibody, V domains shown)
VH: EVQLVESGGGLVQPGGSLRLSCAASGFTFSSYWMTWVRQAPGKGLEWVANIKQDGSEKYYVDSVKGRFTISRDNAKNSLYLQMNSLRAEDTAVYYCVRDRYDALDIWGQGTMVTVSS
VL: AIQMTQSPSSLSASVGDRVTITCRASQGIRNDLNWYQQKPGKAPKLLIYAASSLQSGVPSRFSGSGSGTDFTLTISSLQAEDFATYYCLKDYNYPYTFGQGTKLEIK
notes: Tested as non-clonal hybridoma supernatant from AlivaMab Mouse Kappa mice, detected with anti-mouse Fc and anti-human Kappa
B2: 75110_01C18A (antibody, V domains shown)
VH: EVQLVESGGGLIQPGGSLRLSCAASGFTVSSNYMNWVRQAPGKGLEWVSVIYAGDNTYSADSVKGRFTISRDNSNNTLCLQMNSLRAEDTAVYYCAREGGTTGAFDIWGQGTMVTVSS
VL: DIQMTQSPSSVSASVGDRVTITCRASQGINSWLAWYQQKPGKAPKLLIYAASSLQSGVPSRFSGSGSGTDFTLTISSLQPEDFATYYCQQGNSFPYTFGQGTKLEIK
notes: Tested as antibody purified from AlivaMab Mouse hybridoma supernatant (captured by anti-mouse IgG Fc)
B3: 75110_05G15A (antibody, V domains shown)
VH: QVQLQESGPGLVKPSQTLSLTCTVSGGSISSGGYFWSWIRQHPGKGLEWIGCIYYSGSTYYIPSLKSRVTISVDTSKNQFSLKLRSVTAADTAVYYCARDGYDYWYFDLWGRGTLVTVSS
VL: not shown
B4: CD8B362 (antibody, human IgG1, kappa, V domains shown)
VH: EVKLVESGAELVKPGASVKLSCTASGFNIKDTYMHWVKQRPEQGLEWIGRIDPANGHTKFDPKFQGKATITADTSSNTAYLQLSSLTSEDTAVYYCAIRFAYWGQGTLVTVSA
VL: DIQMTQSPSSLSASLGDRVSLTCRASHEISGYLSWLQQKPDGTFKRLIYAASTLDSGVPKRFSGSRSGSDYSLSISSLESEDFADYYCLQYSSYPYTFGSGTKLEMKR
notes: Full-length human IgG1, kappa
B5: 75110_08H11A (antibody, V domains shown)
VH: EVQLVESGGGLVQPGGSLRLSCAASGFTFSSYDMHWVRQATGKGLEWVSTIGTAGDTYYPGSVKGRFTISRENAKNSLYLQMNSLRAGDTAVYYCARGGYSYYGMDVWGQGTTVTVSS
VL: EIVLTQSPGTLSLSPGERATLSCGASQSVSSTYLAWYQQKPGQAPRLLIYGASSRATGIPDRFSGSGSGTDFTLTISRLEPEDFAVYYCQQFGSSPFTFGPGTKVDIK
notes: as for B1
B6: 75110_10N21A (antibody, V domains shown)
VH: B5 VH with A40V, S101Y
VL: B5 VL with G24R, V29F, S30I, T32S, E80D, F92S, S94N, I107V
notes: as for B1
B7: 75110_04P06A (antibody, V domains shown)
VH: B5 VH with S31N, Y100D, S101Y
VL: B5 VL with G9D, G24R, V29L, T32V, S77N, A85V, F92Y
notes: as for B2
B8: 75110_01K10A (antibody, V domains shown)
VH: B5 VH with G10A, S30R, S31N, Y100D, S101Y
VL: B5 VL with G9D, G24R, V29L, T32V, S66T, F92Y
notes: as for B2
B9: 75110_02I18A (antibody, V domains shown)
VH: B5 VH with L4V, S101Y
VL: B5 VL with G24R, T32S, A44S, Y50H, F63V, F92Y
notes: as for B2
B10: 75110_08H06A (antibody, V domains shown)
VH: B5 VH with S31N, S101D
VL: B5 VL with G24R, V29I, S30T, T32I, Q38R, F92Y
notes: as for B1
B11: 75110_14H13A (antibody, V domains shown)
VH: B5 VH with S31N, E72K, N83I, Y100D, S101Y
VL: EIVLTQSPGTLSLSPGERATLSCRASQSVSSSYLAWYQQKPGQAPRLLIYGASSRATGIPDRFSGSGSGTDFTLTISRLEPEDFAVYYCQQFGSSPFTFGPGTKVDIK
notes: as for B1
B12: 75110_13C07A (antibody, V domains shown)
VH: B5 VH with G10V, S31N, I69L, N83H, G99A, S101G
VL: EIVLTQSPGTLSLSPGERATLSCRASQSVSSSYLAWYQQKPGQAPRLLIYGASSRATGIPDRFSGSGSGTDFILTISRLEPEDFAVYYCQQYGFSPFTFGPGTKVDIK
notes: as for B1
B13: 75110_05F19A (antibody, V domains shown)
VH: B5 VH with S31N, M34V, A40P, S101D, M105L
VL: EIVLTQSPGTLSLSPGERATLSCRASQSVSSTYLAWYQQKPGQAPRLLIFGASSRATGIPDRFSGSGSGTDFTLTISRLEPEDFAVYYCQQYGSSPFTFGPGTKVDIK
notes: as for B2
B14: 75110_03I23A (antibody, V domains shown)
VH: QVQLQESGPGLVKPSETLSLTCTASGGSITSYYWNWIRQPAGKGLEWIGRIYTSGSTNYNPSLKSRVTMSVDTSKNQFSLKLSSVTAADTAVYYCARDPGYSDAFNIWGQGTMVTVSS
VL: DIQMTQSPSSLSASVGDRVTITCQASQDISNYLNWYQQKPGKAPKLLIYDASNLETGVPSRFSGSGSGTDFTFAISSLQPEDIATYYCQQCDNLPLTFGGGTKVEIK
notes: as for B2
B15: 75110_04G02A (antibody, V domains shown)
VH: not shown
VL: DIVMTQSPDSLAVSLGERATINCKSSQSVLYSSNNKNYLAWYQQKPGQPPKLLFYWASARESGVPDRFSGSGSGTDFTLTISSLQAEDVALYYCQQYFGSFPTFGQGTKLEIK
notes: as for B2
B16: 75110_05A11A (antibody, V domains shown)
VH: EVQLVESGGGLVKPGGSLTLSCAASGFTFSNTWMSWVRQAPGKGLEWVGRIKSKIDGGTTDYAAPVKGRFTISRDDSKNTLYLQMNSLKTEDTAVYYCTTSGTYSSGWGLFDYWGQGTLVTVSS
VL: DIQMTQSPSSLSASVGDRVTITCQASQDISNYLNWYQQKPGKAPKLLIYDTSNLEAGVPSRFSGSGSGTHFTLTISSLQPEDIATYYCQQYDNLPFTFGGGTRVEIK
notes: as for B2

Legend:
[1] = biological target: T1, human CD4 on cells (SKW3 cells; human PBMCs) (human, UniProt P01730 26-458); experiment: FACS binning on SKW3 cells after supernatant; competitor OKT4-A488; background 2163, max binding 8200
T1 construct: whole, on cells; The SKW3 CD4 knockout cells served as the negative cell line; also called hCD4

[2] = biological target: T1, human CD4 on cells (SKW3 cells; human …); experiment: FACS confirmation, supernatant on SKW3 WT cells, anti-mFc 647; background gMFI 3300
huCD4-HIS = biological target: T2, huCD4-HIS (human, UniProt P01730 26-390, limits assumed); experiment: ELISA binning, competitor Ibalizumab; 100 ng/mL huCD4-HIS, anti-HIS HRP detection; background 45, max binding 3000000
T2 construct: Named only in the head of the Ibalizumab ELISA binning column; Neither the source nor the construct limits are told in this stretch; not shown: HIS tag

[3] = biological target: T1, human CD4 on cells (SKW3 cells; human …); experiment: FACS primary screen, non-clonal supernatant; SKW3 vs SKW3 CD4 KO cells, anti-human Kappa FITC detection
[4] = biological target: T1, human CD4 on cells (SKW3 cells; human …); experiment: FACS confirmation, supernatant on human PBMCs, anti-mFc 647
[5] = biological target: T1, human CD4 on cells (SKW3 cells; human …); experiment: FACS confirmation, supernatant on human PBMCs, anti-mFc 647, CD4+ gate
[6] = biological target: T1, human CD4 on cells (SKW3 cells; human …); experiment: FACS binning on SKW3 cells after supernatant; competitor RPA-T4-PE-Dazzle 594; background 783, max binding 15000
[7] = biological target: T1, human CD4 on cells (SKW3 cells; human …); experiment: FACS primary screen, non-clonal supernatant; SKW3 vs SKW3 CD4 KO cells, anti-mouse Fc 647 detection
[8] = biological target: T1, human CD4 on cells (SKW3 cells; human …); experiment: FACS confirmation, supernatant on SKW3 WT cells, anti-hu Kappa FITC; background gMFI 2500
[9] = biological target: T1, human CD4 on cells (SKW3 cells; human …); experiment: FACS binning on SKW3 cells after supernatant; competitor OKT4a, anti-hu A647 secondary; background 5000, max binding 35000
[10] = biological target: T3, Rhesus macaque CD4-HIS (Acro Biosystems, Cat. CD4-C52H7) (rhesus macaque, UniProt P16003 26-390); experiment: BLI Octet, mAb on anti-mouse Fc sensor, rhesus CD4-HIS 25-100 nM
T3 construct: Bought reagent; also called Rhesus CD4; rhesus CD4-HIS; not shown: His tag

[11] = biological target: T4, human CD8 on human pan T cells (CD4-negative population) (human, UniProt P01732 22-235; P10966 22-210); experiment: flow cytometry, 20 nM antibody on human pan T cells, A647 anti-human IgG Fc; geomean ratio in CD4-negative population
T4 construct: whole, on cells; Target is CD8 as it stands on primary human pan T cells
T4 sequence (P01732 22-235, chain 1 of 2): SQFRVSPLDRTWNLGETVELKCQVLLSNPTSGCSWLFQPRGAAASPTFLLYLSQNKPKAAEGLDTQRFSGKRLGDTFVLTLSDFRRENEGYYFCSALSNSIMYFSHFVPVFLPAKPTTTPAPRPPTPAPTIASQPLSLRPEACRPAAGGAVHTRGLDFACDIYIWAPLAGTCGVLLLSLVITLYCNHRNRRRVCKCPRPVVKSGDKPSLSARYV
T4 sequence (P10966 22-210, chain 2 of 2): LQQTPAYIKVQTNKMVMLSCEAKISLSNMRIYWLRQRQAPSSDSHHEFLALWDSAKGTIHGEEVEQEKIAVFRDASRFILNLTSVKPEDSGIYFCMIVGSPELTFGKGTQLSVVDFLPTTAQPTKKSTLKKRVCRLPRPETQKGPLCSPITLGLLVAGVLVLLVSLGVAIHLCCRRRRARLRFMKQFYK

T3 sequence (P16003 26-390 limits assumed): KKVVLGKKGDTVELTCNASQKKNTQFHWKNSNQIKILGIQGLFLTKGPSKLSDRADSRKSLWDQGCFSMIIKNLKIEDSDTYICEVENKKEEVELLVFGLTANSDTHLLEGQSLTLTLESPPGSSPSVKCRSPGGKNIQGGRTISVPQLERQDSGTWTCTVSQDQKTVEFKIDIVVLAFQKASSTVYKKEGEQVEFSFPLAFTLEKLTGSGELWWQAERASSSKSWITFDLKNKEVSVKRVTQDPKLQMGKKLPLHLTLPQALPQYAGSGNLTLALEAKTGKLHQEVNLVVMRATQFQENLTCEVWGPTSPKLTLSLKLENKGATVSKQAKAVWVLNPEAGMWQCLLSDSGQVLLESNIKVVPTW

Row | Binder | OKT4 A488 signal (FACS binning) [1] | gMFI, SKW3 WT anti-mFc 647 [2] [gMFI] | Ibalizumab ELISA binning signal (huCD4-HIS) | SKW3 WT vs KO, anti-hKappa-FITC (ratio) [3] [ratio] | PBMCs CD4+ percent bound of viable [4] [%] | PBMCs CD4+ gate RL1 Binding [5] | RPA-T4-PE-Dazzle 594 signal (FACS binning) [6] | SKW3 WT vs KO, anti-mFc-647 (ratio) [7] [ratio] | gMFI, SKW3 WT anti-hu Kappa FITC [8] [gMFI] | OKT4a anti-hu A647 signal (FACS binning) [9] | binding result [10] | Cell Binding to Human PanT Signal/Background (of CD4 negative population) [11] [signal/background]
1 | B1 | 9980 | 19200 | 293000 | 1.7 | 32 | 224000 | 2590 | 2.6 | 5850 | 34100 | – | –
2 | B2 | – | – | – | – | – | – | – | – | – | – | no binding (tested: 100 nM) | –
3 | B3 | – | – | – | – | – | – | – | – | – | – | no binding (tested: 100 nM) | –
4 | B4 | – | – | – | – | – | – | – | – | – | – | – | 4
5 | B5 | 9770 | 18600 | 869000 | 1.6 | 31 | 246000 | 3090 | 2.8 | 5230 | 36000 | – | –
6 | B6 | 9090 | 13000 | 1.58e+06 | 1.4 | 33 | 179000 | 6880 | 3.1 | 4060 | 40100 | – | –
7 | B7 | – | – | – | – | – | – | – | – | – | – | no binding (tested: 100 nM) | –
8 | B8 | – | – | – | – | – | – | – | – | – | – | no binding (tested: 100 nM) | –
9 | B9 | – | – | – | – | – | – | – | – | – | – | no binding (tested: 100 nM) | –
10 | B10 | 10400 | 23000 | 1.42e+06 | 1.6 | 30 | 225000 | 2480 | 3 | 6270 | 29900 | – | –
11 | B11 | 12700 | 22000 | 2260 | 1.9 | 29 | 292000 | 1660 | 4.8 | 6010 | 14300 | – | –
12 | B12 | 9590 | 23100 | 1.7e+06 | 1.6 | 35 | 303000 | 2510 | 3.1 | 5720 | 38900 | – | –
13 | B13 | – | – | – | – | – | – | – | – | – | – | no binding (tested: 100 nM) | –
14 | B14 | – | – | – | – | – | – | – | – | – | – | no binding (tested: 100 nM) | –
15 | B15 | – | – | – | – | – | – | – | – | – | – | no binding (tested: 100 nM) | –
16 | B16 | – | – | – | – | – | – | – | – | – | – | no binding (tested: 100 nM) | –
